The values below come from patent publication US20150274841A1 (DYAX, published 2015).

In assay [1] the target is T1, plasma kallikrein catalytic domain Mutant 2 (R551A, Q553A, Y555A, T558A, R560A) (human, UniProt P03952 391-638).
T1 construct: Expressed in Pichia pastoris
Put plainly: Ki,app; IgG inhibition of PKal catalytic domain cleavage of a substrate peptide, Morrison fit. As to the method:
(§1) Briefly, PKal and a Fab at various concentrations are incubated together for 1 hour at 30° C. A substrate peptide (cleavable by PKal) is then added to this PKal-Fab mixture. The rate of substrate peptide cleavage/proteolysis is then measured, and plotted against the concentrations of the Fab. This plot is then fit to the Morrison equation, which calculates the K_{i,app} value. The results thus obtained are shown in FIGS. 5A-5D and Table 3 below:
(§2) The inhibitory activity of X115-F02 against the wild-type PKal and the mutants were carried out using the method described in Example 3 above and the K_{i,app} values were determined.

The target of assay [2] is T2, plasma kallikrein catalytic domain Mutant 4 (N396A, S398A, W399A) (human, UniProt P03952 391-638).
T2 construct: Expressed in Pichia pastoris
T2 sequence (P03952 391-638 N396A/S398A/W399A): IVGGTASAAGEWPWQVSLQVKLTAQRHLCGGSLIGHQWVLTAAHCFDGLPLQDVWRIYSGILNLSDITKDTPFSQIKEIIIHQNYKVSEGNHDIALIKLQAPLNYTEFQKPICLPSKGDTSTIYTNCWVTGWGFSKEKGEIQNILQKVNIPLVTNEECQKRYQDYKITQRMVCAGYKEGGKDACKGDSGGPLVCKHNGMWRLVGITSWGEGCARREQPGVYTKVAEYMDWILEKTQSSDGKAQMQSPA
Kind of assay: enzyme inhibition assay: rate (F/s) of substrate peptide cleavage by PKal against [IgG] (nM), fitted to the Morrison equation; apparent Ki (Ki,app). The procedure:
as §1, §2

Assay [3] deals with T3, wild type plasma kallikrein catalytic domain (recombinant, Pichia pastoris) (human, UniProt P03952 391-638).
T3 construct: also called wild-type PKal
T3 sequence (P03952 391-638): as the sequence (P03952 391-638 N396A/S398A/W399A) above, with A6N, A8S, A9W counted along it
The assay is described as above. As to the method: as §1, §2

Assay [4] deals with T1, plasma kallikrein catalytic domain …. Described as above. As to the method: as §1, §2
For assay [5], the target named is T4, plasma kallikrein catalytic domain Mutant 1 (S478A, N481A, S506A, Y507A) (human, UniProt P03952 391-638).
T4 construct: Expressed in Pichia pastoris
T4 sequence (P03952 391-638 S478A/N481A/C503S/S506A/K507A limits assumed): as the sequence (P03952 391-638 N396A/S398A/W399A) above, with A6N, A8S, A9W, S88A, N91A, C113S, S116A, K117A counted along it
Described as above. The procedure: as §1, §2

T1 sequence (P03952 391-638 R551A/Q553A/Y555A/T558A/R560A): as the sequence (P03952 391-638 N396A/S398A/W399A) above, with A6N, A8S, A9W, R161A, Q163A, Y165A, T168A, R170A counted along it

B1: X115-F02 (antibody, human IgG1, kappa, V domains shown)
VH: EVQLLESGGGLVQPGGSLRLSCAASGFTFSHYIMMWVRQAPGKGLEWVSGIYSSGGITVYADSVKGRFTISRDNSKNTLYLQMNSLRAEDTAVYYCAYRRIGVPRRDEFDIWGQGTMVTVSS
VL: DIQMTQSPSTLSASVGDRVTITCRASQSISSWLAWYQQKPGKAPKLLIYKASTLESGVPSRFSGSGSGTEFTLTISSLQPDDFATYYCQQYNTYWTFGQGTKVEIKR
notes: also called mutant X115-F02
For the molecule B1, the “fold reduction of potency (Ki,app) against wild-type PKal” value in assay [1] is approximately 65 fold. Besides, the Ki in assay [2] is 0.1 nM; in assay [3], 0.09 nM; in assay [4], 5.9 nM; in assay [5] it was 0.14 nM.
